How the values were obtained:
human podocalyxin [1] = target: T1, human podocalyxin (human); assay: flow cytometry, control, 1:125, MDA-MB-231 cells
T1 chain: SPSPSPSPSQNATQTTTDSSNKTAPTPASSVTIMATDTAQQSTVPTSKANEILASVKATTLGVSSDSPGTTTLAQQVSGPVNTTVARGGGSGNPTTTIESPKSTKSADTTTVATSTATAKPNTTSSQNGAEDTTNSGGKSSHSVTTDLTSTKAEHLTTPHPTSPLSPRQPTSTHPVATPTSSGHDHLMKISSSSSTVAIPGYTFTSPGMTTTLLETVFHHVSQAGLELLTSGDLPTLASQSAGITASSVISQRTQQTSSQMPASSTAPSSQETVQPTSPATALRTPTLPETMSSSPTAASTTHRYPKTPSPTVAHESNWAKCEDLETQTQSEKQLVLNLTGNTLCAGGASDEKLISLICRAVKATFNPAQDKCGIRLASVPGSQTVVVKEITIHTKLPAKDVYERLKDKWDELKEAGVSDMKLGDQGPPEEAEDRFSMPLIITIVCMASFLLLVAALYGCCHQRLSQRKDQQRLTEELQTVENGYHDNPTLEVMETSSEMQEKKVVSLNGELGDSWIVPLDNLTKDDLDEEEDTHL

human podocalyxin [2] = target: T1, human podocalyxin; assay: flow cytometry, control, neat, MDA-MB-231 cells
human podocalyxin [3] = target: T1, human podocalyxin; assay: flow cytometry, control, 1:125, hPodo/MDA-MB-231 transient transfectants
human podocalyxin [4] = target: T1, human podocalyxin; assay: flow cytometry, control, neat, hPodo/MDA-MB-231 transient transfectants
human podocalyxin [5] = target: T1, human podocalyxin; assay: flow cytometry, control, 1:5, MDA-MB-231 cells
human podocalyxin [6] = target: T1, human podocalyxin; assay: flow cytometry, control, 1:5, hPodo/MDA-MB-231 transient transfectants
human podocalyxin [7] = target: T1, human podocalyxin; assay: flow cytometry, control, 2:15 (so in the source), MDA-MB-231 cells
human podocalyxin [8] = target: T1, human podocalyxin; assay: flow cytometry, control, 2:15 (so in the source), hPodo/MDA-MB-231 transient transfectants
[9] = target: human podocalyxin (human); assay: flow cytometry, supernatant 2:15 (so in the source), MDA-MB-231 cells
[10] = target: human podocalyxin (human); assay: flow cytometry, supernatant 1:125, hPodo/MDA-MB-231 transient transfectants
[11] = target: human podocalyxin (human); assay: kinetic exclusion assay (KinExA 3200), A172 cells
[12] = target: human podocalyxin (human); assay: flow cytometry titration on 293-6E cells (endogenous podocalyxin), 48 hours at 4 C
[13] = target: human podocalyxin (human); assay: flow cytometry, CaOV3 cells
[14] = target: human podocalyxin (human); assay: flow cytometry, 5 ug/mL antibody, CaOV3 cells
[15] = target: human podocalyxin (human); assay: FACS on MDA-MB-231 cells; biotinylated antibody 5 ug/mL, no competitor (FACS Buffer row)
[16] = target: human podocalyxin (human); assay: flow cytometry, 5 ug/mL antibody, MCF7 cells
[17] = target: human podocalyxin (human); assay: flow cytometry, A172 cells
[18] = target: human podocalyxin (human); assay: flow cytometry, T47-D cells
[19] = target: human podocalyxin (human); assay: flow cytometry, OVCAR3 cells
[20] = target: human podocalyxin (human); assay: flow cytometry, supernatant neat, MDA-MB-231 cells
[21] = target: human podocalyxin (human); assay: kinetic exclusion assay (KinExA 3200), MDA-MB-231 cells
[22] = target: human podocalyxin (human); assay: flow cytometry, 293 HEK cells
[23] = target: human podocalyxin (human); assay: flow cytometry, MDA-MB-231 cells
[24] = target: human podocalyxin (human); assay: flow cytometry, 5 ug/mL antibody, OVCAR3 cells
[25] = target: human podocalyxin (human); assay: flow cytometry, supernatant neat, hPodo/MDA-MB-231 transient transfectants
[26] = target: human podocalyxin (human); assay: flow cytometry titration on 293-6E cells (endogenous podocalyxin), 24 hours at 4 C
[27] = target: human podocalyxin (human); assay: flow cytometry, SKOV3 cells
[28] = target: human podocalyxin (human); assay: flow cytometry, supernatant 1:125, MDA-MB-231 cells
[29] = target: human podocalyxin (human); assay: flow cytometry, MCF7 cells
[30] = target: human podocalyxin (human); assay: flow cytometry, 5 ug/mL antibody, HUVEC cells
[31] = target: human podocalyxin (human); assay: flow cytometry, 5 ug/mL antibody, T47-D cells
[32] = target: human podocalyxin (human); assay: flow cytometry, 5 ug/mL antibody, OVCAR10 cells
[33] = target: human podocalyxin (human); assay: flow cytometry, 5 ug/mL antibody, MDA-MB-231 cells
[34] = target: human podocalyxin (human); assay: flow cytometry, supernatant 1:5, MDA-MB-231 cells
[35] = target: human podocalyxin (human); assay: flow cytometry, supernatant 1:5, hPodo/MDA-MB-231 transient transfectants
[36] = target: human podocalyxin (human); assay: flow cytometry, OVCAR10 cells
[37] = target: human podocalyxin (human); assay: flow cytometry, 5 ug/mL antibody, 293 cells
[38] = target: human podocalyxin (human); assay: flow cytometry, 5 ug/mL antibody, A172 cells
[39] = target: human podocalyxin (human); assay: flow cytometry, HUVEC cells
[40] = target: human podocalyxin (human); assay: FACS, hPodo/MDA cells (MDA-MB-231 transfected with human podocalyxin cDNA)
[41] = target: human podocalyxin (human); assay: flow cytometry, supernatant 2:15 (so in the source), hPodo/MDA-MB-231 transient transfectants

Rb IgG (antibody) showed an FACS signal (name not given) (human podocalyxin [1]) of 431, an FACS signal (name not given) (human podocalyxin [2]) of 574 and an FACS signal (name not given) (human podocalyxin [3]) of 645. The FACS signal (name not given) (human podocalyxin [4]) was 762, the FACS signal (name not given) (human podocalyxin [5]) was 467 and the FACS signal (name not given) (human podocalyxin [6]) was 660. For the same molecule, the FACS signal (name not given) (human podocalyxin [7]) was 438 and the FACS signal (name not given) (human podocalyxin [8]) was 617.

B1: Rb/Hu Podo83 (Podo83 rabbit VH and VL, human IgG1 chimera) (antibody, V domains shown)
VH: CQSLAESGGRLVTPGTPLTLTCTASGIDLSSYAMGWVRQAPGKGLEYIGFIYASGSIFYASWAKGRFTISKTSSTTVDLKMTSLTTEDTATYFCARAGYYFGGNYDLNLWGQGTLVTVSS
VL: DIVLTQTPASVEVAVGGTVTIKCQASQSISNYLAWYQRKPGQPPRLLIYRASTLASGVSSRFKGSGSGTQFTLTISGVECADAATYYCQQGYVSNNLDNIFGGGTEVVVK
modifications: human IgG1/kappa constant regions
In the case of B1, the FACS signal (name not given) [9] is reported as 102000, the FACS signal (name not given) [10] is reported as 58500 and the Kd [11] is reported as 103 pM. It also gave an EC50 (half-maximal binding) [12] of 0.0305 µg/mL, a Live cell GeoMean FL (geometric mean fluorescence units) [13] of 23400 and a Live cell GeoMean FL (geometric mean fluorescence units) [14] of 48800. For the same molecule, the FACS signal (name not given) [15] was 139000, the Live cell GeoMean FL (geometric mean fluorescence units) [16] was 60800 and the Live cell GeoMean FL (geometric mean fluorescence units) [17] was 224000. For the same molecule, the Live cell GeoMean FL (geometric mean fluorescence units) [18] was 1130, the Live cell GeoMean FL (geometric mean fluorescence units) [19] was 28600 and the FACS signal (name not given) [20] was 143000. For the same molecule, the Kd [21] was 45.6 pM, the Live cell GeoMean FL (geometric mean fluorescence units) [22] was 28200 and the Live cell GeoMean FL (geometric mean fluorescence units) [23] was 88900. It also gave a Live cell GeoMean FL (geometric mean fluorescence units) [24] of 16500, an FACS signal (name not given) [25] of 79000 and an EC50 [26] of 0.0295 µg/mL. The Live cell GeoMean FL (geometric mean fluorescence units) [27] was 59800, the FACS signal (name not given) [28] was 50600 and the Live cell GeoMean FL (geometric mean fluorescence units) [29] was 28400. It also gave a Live cell GeoMean FL (geometric mean fluorescence units) [30] of 44600, a Live cell GeoMean FL (geometric mean fluorescence units) [31] of 1500 and a Live cell GeoMean FL (geometric mean fluorescence units) [32] of 2820. The Live cell GeoMean FL (geometric mean fluorescence units) [33] was 91900, the FACS signal (name not given) [34] was 121000 and the FACS signal (name not given) [35] was 99300. It also gave a Live cell GeoMean FL (geometric mean fluorescence units) [36] of 1530, a Live cell GeoMean FL (geometric mean fluorescence units) [37] of 28200 and a Live cell GeoMean FL (geometric mean fluorescence units) [38] of 170000. It also gave a Live cell GeoMean FL (geometric mean fluorescence units) [39] of 24500, an FACS signal (name not given) [40] of 178000 and an FACS signal (name not given) [41] of 155000.
